US20190119407A1 (Amgen, published 2019)
Residue numbers refer to the chain shown, from its start.

How the values were obtained:
human TL1A [1] = target: T1, human TL1A (human, UniProt O95150 72-251, limits assumed); experiment: SPR, Fab captured on anti-huFab chip, TL1A injected, 1:1 model
T1 construct: The assays name only 'human TL1A protein'; also called huTL1A; Hu TL1A
T1 sequence (looked up): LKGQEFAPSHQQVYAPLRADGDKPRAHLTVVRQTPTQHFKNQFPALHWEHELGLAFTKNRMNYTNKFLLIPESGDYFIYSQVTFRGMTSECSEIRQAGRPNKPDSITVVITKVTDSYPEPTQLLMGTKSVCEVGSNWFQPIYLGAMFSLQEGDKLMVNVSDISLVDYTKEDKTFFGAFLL
Procedure: (§1) On rate, off rate and equilibrium dissociation constant were calculated using 1:1 binding model on BIAevaluation software.

cynomolgus TL1A [2] = target: T2, cynomolgus TL1A (cynomolgus monkey, UniProt G7PRK8 72-251); experiment: SPR, Fab captured on anti-huFab chip, TL1A injected
T2 construct: also called cyno TL1A; cynomolgus monkey TL1A
T2 sequence: T1 sequence (looked up) with F39L, I78V
Procedure: as §1

human TL1A [3] = target: T1, human TL1A; experiment: cell-based or functional assay
cynomolgus TL1A [4] = target: T2, cynomolgus TL1A; experiment: cell-based or functional assay

B1: anti-TL1A Fab 17E9 (Fab, V domains shown)
VH: QVQLVESGGGVVQPGRSLRLSCAASGFTLSSYGMHWVRQAPGKGLEWVAVMSYDGNNKLYADSVKGRFTISRDNSKKTLYLQMNSLRAEDTAVYYCARDETETLYYYYGIDVWGQGTTVTVSS
VL: DIQMTQSPSSLSASVGDRVTITCRASQGISNDLAWYQQKPGKAPKRLIFAASSLQSGVPSRFSGSGSGTEFTLTISSLQPEDFATYYCLQHNSYPPTFGGGTKVEIK
notes: Fab fragment; the Fab's constant parts are not; also called 17E9 Fab; PL-39194
Kd (human TL1A [1]): < 0.1 nM
koff (human TL1A [1]): < 5e-05 s⁻¹
binding result (cynomolgus TL1A [2]): no binding (tested: 100 nM)
NF-kB IC50 nM, huTL1A (0.2 nM) (human TL1A [3]): 70.8 nM
NF-kB IC50 nM, cyno TL1A (2 nM) (cynomolgus TL1A [4]): > 100 nM
